In US20190169232A1 (FEINSTEIN INSTITUTES FOR MEDICAL RESEARCH, published 2019):

Key:
[1] = target: T1, C1q purified from pooled normal human sera (human, UniProt P02746 28-253; P02747 29-245); assay: SPR kinetics, C1q immobilised on a CM5 chip, HMGB1 redox form as analyte in a concentration series, 1:1 fit
T1 construct: mature; Bought from Complement Technology, purified from serum; It names no B or C chains; Biotinylated for the bead assay; also called human C1q; first component of complement
Description: A 1:1 mixture of N-hyrdoxysuccinimide and N-ethyl-N-(dimethyaminopropyl) carbodiimide was used to activate 2 flow-cells of the CM5 chip. […] The analyte (HMGB1) was diluted in 1× HBS-N+0.05% tween-20 buffer (filtered—0.22 um). Three redox states of HMGB1 were sequentially injected at a flow rate of 20 μl/min for 60 s at 25° C., the dissociation time was set for 3 minutes. […]

[2] = target: T1, C1q purified from pooled normal human …; assay: SPR (BIAcore T200), HMGB1 immobilized on a CM5 chip, C1q as analyte at 5 concentrations, 1:1 fit
Description: Surface Plasmon Resonance analysis (SPR): For real-time binding interaction studies, a BIAcore T200 instrument (GE Healthcare) was used. […] A 1:1 mixture of N-hydroxysuccinimide and N-ethyl-N-(dimethyaminopropyl) carbodiimide was used to activate 2 flow-cells of the CM5 chip. […] The analytes were diluted in 1× PBS+0.01% (vol/vol) tween-20 buffer. The analytes were sequentially injected at a flow rate of 30 μl/min for 60 s at 25° C. The KD was determined using the BIAcore evaluation software 2.0 (GE Healthcare) supposing a 1:1 binding ratio.

[3] = target: T2, Human recombinant RAGE (hrRAGE), soluble RAGE (human, UniProt Q15109 24-344, limits assumed); assay: SPR (data not shown)
T2 construct: Called soluble RAGE (sRAGE) in the SPR and bead experiments; also called sRAGE; Receptor for Advanced Glycation Endproducts

RAGE on human monocytes = target: T3, RAGE on human monocytes (human, UniProt Q15109 23-404); assay: proximity ligation assay on human monocytes, condition without C1q
T3 construct: whole, on cells
T3 sequence (Q15109 23-404): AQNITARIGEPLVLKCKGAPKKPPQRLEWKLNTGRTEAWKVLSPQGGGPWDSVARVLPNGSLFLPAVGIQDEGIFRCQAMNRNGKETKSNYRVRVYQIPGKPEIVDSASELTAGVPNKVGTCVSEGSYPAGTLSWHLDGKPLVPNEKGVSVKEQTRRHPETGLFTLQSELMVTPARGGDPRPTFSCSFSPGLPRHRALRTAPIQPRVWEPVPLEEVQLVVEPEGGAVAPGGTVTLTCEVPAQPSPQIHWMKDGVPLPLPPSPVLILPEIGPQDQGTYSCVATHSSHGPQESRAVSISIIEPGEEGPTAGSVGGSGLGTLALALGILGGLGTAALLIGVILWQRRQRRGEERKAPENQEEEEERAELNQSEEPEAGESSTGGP

T1 sequence (P02746 28-253, chain 2 of 2): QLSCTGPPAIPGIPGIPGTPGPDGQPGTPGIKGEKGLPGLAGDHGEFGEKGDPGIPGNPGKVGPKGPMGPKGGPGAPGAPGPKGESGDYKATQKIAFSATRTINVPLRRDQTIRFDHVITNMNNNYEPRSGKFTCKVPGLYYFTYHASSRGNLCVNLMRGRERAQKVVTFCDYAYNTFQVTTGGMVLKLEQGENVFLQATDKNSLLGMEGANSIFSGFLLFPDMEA
T1 sequence (P02747 29-245, chain 3 of 2): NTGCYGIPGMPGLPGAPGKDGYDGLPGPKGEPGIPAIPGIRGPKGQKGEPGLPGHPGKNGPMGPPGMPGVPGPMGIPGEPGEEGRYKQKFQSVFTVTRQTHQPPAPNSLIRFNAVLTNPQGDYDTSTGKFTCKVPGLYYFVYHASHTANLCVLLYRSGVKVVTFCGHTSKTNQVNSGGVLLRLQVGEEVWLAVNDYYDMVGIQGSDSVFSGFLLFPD
T2 sequence (Q15109 24-344 limits assumed): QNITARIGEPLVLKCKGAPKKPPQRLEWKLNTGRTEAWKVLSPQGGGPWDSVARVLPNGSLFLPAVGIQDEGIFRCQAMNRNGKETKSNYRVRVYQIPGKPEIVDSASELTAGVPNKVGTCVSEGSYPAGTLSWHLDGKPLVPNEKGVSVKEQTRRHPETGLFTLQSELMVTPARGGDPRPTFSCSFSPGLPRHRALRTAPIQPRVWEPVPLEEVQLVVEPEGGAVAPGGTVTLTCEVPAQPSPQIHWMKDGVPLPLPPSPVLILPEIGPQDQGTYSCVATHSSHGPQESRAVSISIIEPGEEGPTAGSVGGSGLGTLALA

B1: Disulfide HMGB1 (ligand, UniProt P09429 1-215, looked up)
chain: MGKGDPKKPRGKMSSYAFFVQTCREEHKKKHPDASVNFSEFSKKCSERWKTMSAKEKGKFEDMAKADKARYEREMKTYIPPKGETKKKFKDPNAPKRPPSAFFLFCSEYRPKIKGEHPGLSIGDVAKKLGEMWNNTAADDKQPYEKKAAKLKEKYEKDIAAYRAKGKPDAAKKGVVKAEKSKKKKEEEEDEEDEEDEEEEEDEEDEDEEEDDDDE
modifications: disulfide bond between C23 and C45, with a free cysteine at C106
notes: also called disulfide form of HMGB1
For B1, the Kd [1] was 210 nM.

B2: All-thiol HMGB1 (ligand, not shown: small tags and cut ends)
chain: MGKGDPKKPRGKMSSYAFFVQTCREEHKKKHPDASVNFSEFSKKCSERWKTMSAKEKGKFEDMAKADKARYEREMKTYIPPKGETKKKFKDPNAPKRPPSAFFLFCSEYRPKIKGEHPGLSIGDVAKKLGEMWNNTAADDKQPYEKKAAKLKEKYEKDIAAYRAKGKPDAAKKGVVKAEKSKKKKEEEEDEEDEEDEEEEEDEEDEDEEEDDDDE
modifications: All-thiol form: C23, C45 and C106 all stand as free reduced thiols, with no C23-C45 disulfide. The letters are unchanged.
notes: Analyte in the SPR assays on immobilised C1q; also called reduced HMGB1
B2 gave a Kd [1] of 1060 nM.

B3: Recombinant HMGB1 (Calmodulin Binding Protein Epitope, Cbp tagged) (ligand, human, UniProt P09429 1-215, looked up, not shown: small tags and cut ends)
chain: MGKGDPKKPRGKMSSYAFFVQTCREEHKKKHPDASVNFSEFSKKCSERWKTMSAKEKGKFEDMAKADKARYEREMKTYIPPKGETKKKFKDPNAPKRPPSAFFLFCSEYRPKIKGEHPGLSIGDVAKKLGEMWNNTAADDKQPYEKKAAKLKEKYEKDIAAYRAKGKPDAAKKGVVKAEKSKKKKEEEEDEEDEEDEEEEEDEEDEDEEEDDDDE
notes: also called High Mobility Group Box 1
B3 gave a Kd [2] of 200 nM.

B4: C1q tail (C1q collagen-like tail) purified from whole C1q (other)
chain 1: EDLCRAPDGKKGEAGRPGRRGRPGLKGEQGEPGAPGIRTGIQGLKGDQGEPGPSGNPGKVGYPGPSGPLGARGIPGIKGTKGSPGNI
chain 2: not shown
chain 3: not shown
notes: domain: collagen-like tail; Fragment prepared from whole serum C1q 'as previous described (22)'; also called C1q collagen tail
B4: no binding [3].

B5: LAIR-1 on human monocytes (receptor, UniProt Q6GTX8 22-287, looked up)
chain: QEEDLPRPSISAEPGTVIPLGSHVTFVCRGPVGVQTFRLERDSRSTYNDTEDVSQASPSESEARFRIDSVREGNAGLYRCIYYKPPKWSEQSDYLELLVKESSGGPDSPDTEPGSSAGPTQRPSDNSHNEHAPASQGLKAEHLYILIGVSVVFLFCLLLLVLFCLHRQNQIKQGPPRSKDEEQKPQQRPDLAVDVLERTADKATVNGLPEKDRETDTSALAAGSSQEVTYAQLDHWALTQRTARAVSPQSTKPMAESITYAAVARH
notes: whole, on cells; also called Leukocyte-Associated Ig-like Receptor 1; CD305
B5: no binding (RAGE on human monocytes).
